Measurements published in US20180155451A1 (published 2018).

B1: GpH7-A5/GpH7-B3 variant Q295_09D/GpL16-k0 (antibody, human IgG1, kappa)
heavy 1: not shown
heavy 2: not shown
light: DIVMTQSPLSLPVTPGEPASISCQASESLVHSNRNTYLHWYLQKPGQSPQLLIYKVSNRFSGVPDRFSGSGSGTDFTLKISRVEAEDVGVYYCSQNTHVPPTFGQGTKVEIERTVAAPSVFIFPPSDEQLKSGTASVVCLLNNFYPREAKVQWKVDNALQSGNSQESVTEQDSKDSTYSLSSTLTLSKADYEKHKVYACEVTHQGLSSPVTKSFNRGEC
notes: He Ab: mutation only in the GpH7-B3 H chain; EU numbering; also called He Ab
B2: GpH7-A5/GpH7-B3 variant Q295_10E/GpL16-k0 (antibody, human IgG1, kappa)
heavy 1: not shown
heavy 2: not shown
light: B1 light
notes: as for B1
B3: GpH7-A5/GpH7-B3 variant Q295_11K/GpL16-k0 (antibody, human IgG1, kappa)
heavy 1: not shown
heavy 2: not shown
light: B1 light
notes: as for B1
B4: GpH7-A5/GpH7-B3 variant Q295_12R/GpL16-k0 (antibody, human IgG1, kappa)
heavy 1: not shown
heavy 2: not shown
light: B1 light
notes: as for B1
B5: GpH7-A5/GpH7-B3 variant Q295_13S/GpL16-k0 (antibody, human IgG1, kappa)
heavy 1: not shown
heavy 2: not shown
light: B1 light
notes: as for B1
B6: GpH7-A5/GpH7-B3 variant Q295_14T/GpL16-k0 (antibody, human IgG1, kappa)
heavy 1: not shown
heavy 2: not shown
light: B1 light
notes: as for B1
B7: GpH7-A5/GpH7-B3 variant Q295_15Y/GpL16-k0 (antibody, human IgG1, kappa)
heavy 1: not shown
heavy 2: not shown
light: B1 light
notes: as for B1
B8: GpH7-A5/GpH7-B3 variant Q295_16H/GpL16-k0 (antibody, human IgG1, kappa)
heavy 1: not shown
heavy 2: not shown
light: B1 light
notes: as for B1
B9: GpH7-A5/GpH7-B3 variant Q295_18N/GpL16-k0 (antibody, human IgG1, kappa)
heavy 1: not shown
heavy 2: not shown
light: B1 light
notes: as for B1
B10: GpH7-A5/GpH7-B3 variant S298_01G/GpL16-k0 (antibody, human IgG1, kappa)
heavy 1: not shown
heavy 2: not shown
light: B1 light
notes: as for B1
B11: GpH7-A5/GpH7-B3 variant S298_02A/GpL16-k0 (antibody, human IgG1, kappa)
heavy 1: not shown
heavy 2: not shown
light: B1 light
notes: as for B1
B12: GpH7-A5/GpH7-B3 variant S298_03V/GpL16-k0 (antibody, human IgG1, kappa)
heavy 1: not shown
heavy 2: not shown
light: B1 light
notes: as for B1
B13: GpH7-A5/GpH7-B3 variant S298_04F/GpL16-k0 (antibody, human IgG1, kappa)
heavy 1: not shown
heavy 2: not shown
light: B1 light
notes: as for B1
B14: GpH7-A5/GpH7-B3 variant S298_07I/GpL16-k0 (antibody, human IgG1, kappa)
heavy 1: not shown
heavy 2: not shown
light: B1 light
notes: as for B1
B15: GpH7-A5/GpH7-B3 variant S298_09D/GpL16-k0 (antibody, human IgG1, kappa)
heavy 1: not shown
heavy 2: not shown
light: B1 light
notes: as for B1
B16: GpH7-A5/GpH7-B3 variant S298_10E/GpL16-k0 (antibody, human IgG1, kappa)
heavy 1: not shown
heavy 2: not shown
light: B1 light
notes: as for B1
B17: GpH7-A5/GpH7-B3 variant S298_11K/GpL16-k0 (antibody, human IgG1, kappa)
heavy 1: not shown
heavy 2: not shown
light: B1 light
notes: as for B1
B18: GpH7-A5/GpH7-B3 variant S298_12R/GpL16-k0 (antibody, human IgG1, kappa)
heavy 1: not shown
heavy 2: not shown
light: B1 light
notes: as for B1
B19: GpH7-A5/GpH7-B3 variant S298_14T/GpL16-k0 (antibody, human IgG1, kappa)
heavy 1: not shown
heavy 2: not shown
light: B1 light
notes: as for B1
B20: GpH7-A5/GpH7-B3 variant S298_15Y/GpL16-k0 (antibody, human IgG1, kappa)
heavy 1: not shown
heavy 2: not shown
light: B1 light
notes: as for B1
B21: GpH7-A5/GpH7-B3 variant S298_16H/GpL16-k0 (antibody, human IgG1, kappa)
heavy 1: not shown
heavy 2: not shown
light: B1 light
notes: as for B1
B22: GpH7-A5/GpH7-B3 variant S298_18N/GpL16-k0 (antibody, human IgG1, kappa)
heavy 1: not shown
heavy 2: not shown
light: B1 light
notes: as for B1
B23: GpH7-A5/GpH7-B3 variant Y296_01G/GpL16-k0 (antibody, human IgG1, kappa)
heavy 1: not shown
heavy 2: not shown
light: B1 light
notes: as for B1

Biological target: T1, FcγRIIb (human, UniProt P31994 43-217)
T1 construct: extracellular domain; also called FcgRIIb; 2b; not shown: His tag at the C terminus
T1 sequence (looked up): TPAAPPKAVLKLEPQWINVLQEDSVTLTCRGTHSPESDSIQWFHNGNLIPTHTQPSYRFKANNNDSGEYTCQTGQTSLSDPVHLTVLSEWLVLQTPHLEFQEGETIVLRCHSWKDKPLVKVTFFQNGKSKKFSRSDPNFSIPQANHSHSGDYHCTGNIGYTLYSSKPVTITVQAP
Test: SPR (Biacore), captured antibody, soluble FcγR; relative to GpH7-A5/GpH7-B3/GpL16-k0

Question: How did the He/Con_2b turn out when B1 was run?
Answer: 60.8 relative, HeCon Ab = 100

Question: Which He/Con_2b does the source give for B2 here?
Answer: 94.8 relative, HeCon Ab = 100

Question: B3 was tested. Which He/Con_2b did it give?
Answer: 70.4 relative, HeCon Ab = 100

Question: With B4 as the binder, how does the He/Con_2b read?
Answer: 65.2 relative, HeCon Ab = 100

Question: With B5 as the binder, how does the He/Con_2b read?
Answer: 56.9 relative, HeCon Ab = 100

Question: With B6 as the binder, how does the He/Con_2b read?
Answer: 66.8 relative, HeCon Ab = 100

Question: With B7 as the binder, how does the He/Con_2b read?
Answer: 65.4 relative, HeCon Ab = 100

Question: How did the He/Con_2b turn out when B8 was run?
Answer: 62.7 relative, HeCon Ab = 100

Question: How did the He/Con_2b turn out when B9 was run?
Answer: 64.9 relative, HeCon Ab = 100

Question: For B10, which He/Con_2b is on record?
Answer: 80.1 relative, HeCon Ab = 100

Question: For B11, which He/Con_2b is on record?
Answer: 73.4 relative, HeCon Ab = 100

Question: For B12, which He/Con_2b is on record?
Answer: 64.5 relative, HeCon Ab = 100

Question: Which He/Con_2b does the source give for B13 here?
Answer: 65.4 relative, HeCon Ab = 100

Question: With B14 as the binder, how does the He/Con_2b read?
Answer: 70.6 relative, HeCon Ab = 100

Question: How did the He/Con_2b turn out when B15 was run?
Answer: 48.3 relative, HeCon Ab = 100

Question: Which He/Con_2b does the source give for B16 here?
Answer: 47.6 relative, HeCon Ab = 100

Question: For B17, which He/Con_2b is on record?
Answer: 61.3 relative, HeCon Ab = 100

Question: How did the He/Con_2b turn out when B18 was run?
Answer: 57.8 relative, HeCon Ab = 100

Question: How did the He/Con_2b turn out when B19 was run?
Answer: 77.9 relative, HeCon Ab = 100

Question: B20 was tested. Which He/Con_2b did it give?
Answer: 61.4 relative, HeCon Ab = 100

Question: B21 was tested. Which He/Con_2b did it give?
Answer: 63.5 relative, HeCon Ab = 100

Question: Which He/Con_2b does the source give for B22 here?
Answer: 48.1 relative, HeCon Ab = 100

Question: For B23, which He/Con_2b is on record?
Answer: 79.3 relative, HeCon Ab = 100

Biological target: T2, FcγRIa (human, UniProt P12314 16-292)
T2 construct: extracellular domain; also called FcgRI; 1a; not shown: His tag at the C terminus
Test: as above

T2 sequence (P12314 16-292): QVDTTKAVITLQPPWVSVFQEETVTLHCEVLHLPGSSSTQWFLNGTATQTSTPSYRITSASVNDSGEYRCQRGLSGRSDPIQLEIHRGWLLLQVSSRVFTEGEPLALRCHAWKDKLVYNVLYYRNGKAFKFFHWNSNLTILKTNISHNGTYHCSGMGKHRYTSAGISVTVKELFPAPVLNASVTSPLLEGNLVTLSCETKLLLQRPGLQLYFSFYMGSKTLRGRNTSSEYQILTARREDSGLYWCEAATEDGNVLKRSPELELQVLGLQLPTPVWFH

Question: For B1, which He/Con_1a is on record?
Answer: 100 relative, HeCon Ab = 100

Question: How did the He/Con_1a turn out when B2 was run?
Answer: 103 relative, HeCon Ab = 100

Question: For B3, which He/Con_1a is on record?
Answer: 101 relative, HeCon Ab = 100

Question: With B4 as the binder, how does the He/Con_1a read?
Answer: 100 relative, HeCon Ab = 100

Question: B5 was tested. Which He/Con_1a did it give?
Answer: 102 relative, HeCon Ab = 100

Question: For B6, which He/Con_1a is on record?
Answer: 103 relative, HeCon Ab = 100

Question: B7 was tested. Which He/Con_1a did it give?
Answer: 102 relative, HeCon Ab = 100

Question: How did the He/Con_1a turn out when B8 was run?
Answer: 102 relative, HeCon Ab = 100

Question: For B9, which He/Con_1a is on record?
Answer: 102 relative, HeCon Ab = 100

Question: With B10 as the binder, how does the He/Con_1a read?
Answer: 104 relative, HeCon Ab = 100

Question: B11 was tested. Which He/Con_1a did it give?
Answer: 107 relative, HeCon Ab = 100

Question: Which He/Con_1a does the source give for B12 here?
Answer: 110 relative, HeCon Ab = 100

Question: B13 was tested. Which He/Con_1a did it give?
Answer: 109 relative, HeCon Ab = 100

Question: For B14, which He/Con_1a is on record?
Answer: 107 relative, HeCon Ab = 100

Question: For B15, which He/Con_1a is on record?
Answer: 106 relative, HeCon Ab = 100

Question: Which He/Con_1a does the source give for B16 here?
Answer: 108 relative, HeCon Ab = 100

Question: Which He/Con_1a does the source give for B17 here?
Answer: 109 relative, HeCon Ab = 100

Question: With B18 as the binder, how does the He/Con_1a read?
Answer: 109 relative, HeCon Ab = 100

Question: How did the He/Con_1a turn out when B19 was run?
Answer: 107 relative, HeCon Ab = 100

Question: With B20 as the binder, how does the He/Con_1a read?
Answer: 107 relative, HeCon Ab = 100

Question: How did the He/Con_1a turn out when B21 was run?
Answer: 109 relative, HeCon Ab = 100

Question: For B22, which He/Con_1a is on record?
Answer: 108 relative, HeCon Ab = 100

Question: B23 was tested. Which He/Con_1a did it give?
Answer: 103 relative, HeCon Ab = 100
